In the Immune Epitope Database (IEDB):

Key:
Assay in all cases: IEDB peptide-MHC binding, purified MHC/competitive/radioactivity; ≥ and ≤ were set here for values at or beyond the usual limits of such assays
Conditions in all cases: source organism: Hepacivirus hominis
HLA-A*03:01 = target: HLA-A*03:01
HLA-A*11:01 = target: HLA-A*11:01
HLA-A*02:01 = target: HLA-A*02:01

Sequence | IC50 (HLA-A*03:01) [nM] | further results
AVCTRGVAK | 385 | 
HLHAPTGSGK | 17 | 
HLIFCHSKK | 400 | 
HLIFCHSKKK | 385 | 
RLLAPITAY | 4 | 
SVPAEILRK |  | IC50 (HLA-A*11:01): 13 nM
TLHGPTPLLY | 112 | 
VLAALAAYCL |  | IC50 (HLA-A*02:01): 100 nM
WMNSTGFTK | 189 | 
